From IntAct's records for PubMed 19934257 come the findings set out here.

The chains are these.
B1: NAD-dependent protein deacetylase sirtuin-1 (Homo sapiens), Q96EB6 (parent)
chain: MADEAALALQPGGSPSAAGADREAASSPAGEPLRKRPRRDGPGLERSPGEPGGAAPEREVPAAARGCPGAAAAALWREAEAEAAAAGGEQEAQATAAAGEGDNGPGLQGPSREPPLADNLYDEDDDDEGEEEEEAAAAAIGYRDNLLFGDEIITNGFHSCESDEEDRASHASSSDWTPRPRIGPYTFVQQHLMIGTDPRTILKDLLPETIPPPELDDMTLWQIVINILSEPPKRKKRKDINTIEDAVKLLQECKKIIVLTGAGVSVSCGIPDFRSRDGIYARLAVDFPDLPDPQAMFDIEYFRKDPRPFFKFAKEIYPGQFQPSLCHKFIALSDKEGKLLRNYTQNIDTLEQVAGIQRIIQCHGSFATASCLICKYKVDCEAVRGDIFNQVVPRCPRCPADEPLAIMKPEIVFFGENLPEQFHRAMKYDKDEVDLLIVIGSSLKVRPVALIPSSIPHEVPQILINREPLPHLHFDVELLGDCDVIINELCHRLGGEYAKLCCNPVKLSEITEKPPRTQKELAYLSELPPTPLHVSEDSSSPERTSPPDSSVIVTLLDQAAKSNDDLDVSESKGCMEEKPQEVQTSRNVESIAEQMENPDLKNVGSSTGEKNERTSVAGTVRKCWPNRVAKEQISRRLDGNQYLFLPPNRYIFHGAEVYSDSEDDVLSSSSCGSNSDSGTCQSPSLEEPMEDESEIEEFYNGLEDEPDVPERAGGAGFGTDGDDQEAINEAISVKQEVTDMNYPSNKS

In the experiment the parent is B1. Particulars: with apex1_human APEX1, P27695.
Sequence of apex1_human APEX1, P27695 (P27695 whole entry): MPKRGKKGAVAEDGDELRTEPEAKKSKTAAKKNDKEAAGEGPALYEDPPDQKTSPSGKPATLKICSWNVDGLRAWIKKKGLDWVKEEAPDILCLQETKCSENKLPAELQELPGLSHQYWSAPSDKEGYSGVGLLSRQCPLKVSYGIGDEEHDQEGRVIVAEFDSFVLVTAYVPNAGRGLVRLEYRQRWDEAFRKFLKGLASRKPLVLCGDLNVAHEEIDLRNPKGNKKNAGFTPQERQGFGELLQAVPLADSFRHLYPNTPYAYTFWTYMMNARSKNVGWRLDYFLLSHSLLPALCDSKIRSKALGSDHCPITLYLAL
For the variant H363Y, the “effect of a mutation on the interaction” value is given as “disrupting interaction”.
